Assay results as given in PMC11237084 (2024).

Biological target: Aβ(1-40) peptide, monomeric (UniProt P05067 672-711)
Experiment: SPR

Kd: 0.54 nM
B1: anticalin H1GA (Aβ-anticalin) (designed binder)
chain: QDSTSDLIPAPPLSKVPLQQNFQDNQFHGKWYVVGAAGNVLLREDKDPLKMYATIYELKEDKSYNVTSVGFDDKKCLYKIRTFVPGSQPGEFTLGRIKSEPGGTSWLVRVVSTNYNQHAMVFFKEVAQNRETFNITLYGRTKELTSELKENFIRFSKSLGLPENHIVFPVPIDQCIDG
